For 29 sequences, protein stability index results are on record in the supplement of paper PMC10567573.

The series can be described thus: protein stability index of a GFP-peptide fusion (GPS, HEK-293T) (PSI 1-6); higher = more stable. The settings on record: c terminus: a fixed tail appended.

± gives the standard deviation.
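Also: 24-mer peptide tiles fused after GFP, lentivirally expressed, FACS-sorted into six equal bins by GFP/DsRed ratio, decoded by Illumina sequencing, PSI is the read-weighted mean bin number.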

Consider SLLVHGFKPACMSEIKNLERYMCS [TENT5D], for which the protein stability index runs as follows: (treatment: DMSO) 2.48 ± 0.41; (treatment: MLN4924 1 uM, 8 h) 2.41 ± 0.29.

SLSDQMSVLQSVWMEVLVLGVAQR [ESRRA]: the protein stability index (treatment: DMSO) is 3.33 ± 0.35 and the protein stability index (treatment: MLN4924 1 uM, 8 h) is 2.98 ± 0.46.

On to SLSPSPLGSSAASTALERPSFLSQ [FCHO1], for which the protein stability index is 4.09 ± 0.25 (treatment: DMSO) and 3.98 ± 0.19 (treatment: MLN4924 1 uM, 8 h).

Consider SLVQLQASHQQQVLPPRQPSALVP [MYBL2], for which the protein stability index by setting is: (treatment: DMSO) 3.54 ± 0.23; (treatment: MLN4924 1 uM, 8 h) 3.63 ± 0.28.

In turn, SMENANQENEEKEQVANKGEPLAL [BEX1] displayed a protein stability index (treatment: DMSO) of 5 ± 0.26 and a protein stability index (treatment: MLN4924 1 uM, 8 h) of 5.11 ± 0.22.

For SMQEDEQSGRDLQQYQSQAKQLFR [SEC22B], the protein stability index was determined as 4.22 ± 0.17 (treatment: DMSO) and 4.35 ± 0.19 (treatment: MLN4924 1 uM, 8 h).

In the case of SNFEQTQIQEFKEAFTLMDQNRDG [MYL5], the protein stability index was determined as 5.11 ± 0.2 (treatment: DMSO) and 4.93 ± 0.33 (treatment: MLN4924 1 uM, 8 h).

As to SNLSTRDASILTEMPTQPGKPLIP [NETO1], the protein stability index reads like this: (treatment: DMSO) 4.52 ± 0.18; (treatment: MLN4924 1 uM, 8 h) 4.57 ± 0.26.

Turning to SPAKASQASKLRASKEEKEDWLSH [FBF1], the protein stability index was 4.92 ± 0.37 (treatment: DMSO) and 4.92 ± 0.3 (treatment: MLN4924 1 uM, 8 h).

As for SPNFGFMGQLLQYESEILPSTPNP [DUSP5], the protein stability index stood at 3.59 ± 0.092 (treatment: DMSO) and 3.45 ± 0.48 (treatment: MLN4924 1 uM, 8 h).

SPSKSFWTRITCAEEGWSPTPKCL [CFHR2] returned a protein stability index (treatment: DMSO) of 2.17 ± 0.22 and a protein stability index (treatment: MLN4924 1 uM, 8 h) of 2.47 ± 0.33.

Take SPVTRTRSLSACNKRVGMYLEGFD [DLC1]: the protein stability index is, setting by setting: (treatment: DMSO) 3 ± 0.3; (treatment: MLN4924 1 uM, 8 h) 3.19 ± 0.3.

The sequence SQAPVNKPKKKKEKKEKEKKKKDK [BRD3] showed a protein stability index (treatment: DMSO) of 5.32 ± 0.32 and a protein stability index (treatment: MLN4924 1 uM, 8 h) of 5.3 ± 0.32.

As to SQNIQEDDLQQLQLFTEYGRLAMD [ATL3], the protein stability index was 4.3 ± 0.27 (treatment: DMSO) and 4.09 ± 0.47 (treatment: MLN4924 1 uM, 8 h).

As to SQRAMLLQGTESLNRATQSIERSH [VTI1B], the protein stability index amounted to 4.27 ± 0.13 (treatment: DMSO) and 4.35 ± 0.21 (treatment: MLN4924 1 uM, 8 h).

Consider SQVRALDRFQVPTTEVNAWLVHRD [NFE2L1], for which the protein stability index worked out at 3.37 ± 0.47 (treatment: DMSO) and 3.33 ± 0.48 (treatment: MLN4924 1 uM, 8 h).

For SSAASLIDFLRVVRNQQSLAVSNM [PTPN9], the protein stability index is, setting by setting: (treatment: DMSO) 2.26 ± 0.43; (treatment: MLN4924 1 uM, 8 h) 2.1 ± 0.26.

Turning to SSDESPGSKCSPEDLATAYNNRGQ [TTC32], the protein stability index reads like this: (treatment: DMSO) 5.28 ± 0.18; (treatment: MLN4924 1 uM, 8 h) 5.44 ± 0.12.

For SSEKLNLQKDLETRPTQHELRLYK [CEP70], the protein stability index stood at 4.12 ± 0.16 (treatment: DMSO) and 4.1 ± 0.36 (treatment: MLN4924 1 uM, 8 h).

In the case of SSNVSLSLFVLDQNDNAPEILYPA [PCDHGA10], the protein stability index was 2.48 ± 0.13 (treatment: DMSO) and 2.38 ± 0.29 (treatment: MLN4924 1 uM, 8 h).

In the case of SSNYFSPRESTDFSSSSQEAFAAS [ZBTB22], the protein stability index reads like this: (treatment: DMSO) 4.41 ± 0.17; (treatment: MLN4924 1 uM, 8 h) 4.41 ± 0.15.

Consider SSTCGQLASYPLALVRTRMQAQAS [SLC25A25], for which the protein stability index is, setting by setting: (treatment: DMSO) 2.74 ± 0.23; (treatment: MLN4924 1 uM, 8 h) 3 ± 0.1.

As to SSYSLSDMVSNIELPTRIHEEVYF [MIA2], the protein stability index is 2.35 ± 0.39 (treatment: DMSO) and 2.5 ± 0.6 (treatment: MLN4924 1 uM, 8 h).

Sequence STSLPDPGDFDRNVPRICGVCGDR [VDR] gave a protein stability index (treatment: DMSO) of 4.6 ± 0.2 and a protein stability index (treatment: MLN4924 1 uM, 8 h) of 4.56 ± 0.55.

As for STTALGDKQRKANESKGTRESWDS [ELOA2], the protein stability index reads like this: (treatment: DMSO) 4.06 ± 0.49; (treatment: MLN4924 1 uM, 8 h) 4.34 ± 0.72.

On to SVDIWAIGCVFAELLTGQPLWPGK [CDKL4], for which the protein stability index is, setting by setting: (treatment: DMSO) 2.6 ± 1.3; (treatment: MLN4924 1 uM, 8 h) 3.02 ± 0.97.

With SVGCIFAEMFRRKPLFCGNSEADQ [CDK4], the protein stability index (treatment: DMSO) is 2.37 ± 0.2 and the protein stability index (treatment: MLN4924 1 uM, 8 h) came out at 2.58 ± 0.23.

As for SVGHNNLIPLANTGIVNHTHSRMG [CARM1], the protein stability index by setting is: (treatment: DMSO) 3.47 ± 0.32; (treatment: MLN4924 1 uM, 8 h) 3.66 ± 0.2.

Regarding SVNEHTEEGESLLCLACSAGYYEL [ANKRD17], the protein stability index is, setting by setting: (treatment: DMSO) 2.64 ± 0.38; (treatment: MLN4924 1 uM, 8 h) 2.93 ± 0.29.
